Assay results reported in patent publication US20170252458A1 (EISAI R AND D MANAGEMENT, published 2017).

B1: 111B10-zu (antibody, human IgG1, kappa, V domains shown)
VH: EVQLVESGGGLVQPGGSLRLSCAASGFSLNNYAMSWVRQAPGKGLEWIGSISTGGLAFYANWAKGRFTISRDNSKNTLYLQMNSLRAEDTAVYYCARNGGGSYIFYYFDLWGQGTLVTVSS
VL: DIQMTQSPSSLSASVGDRVTITCQASQSISSYLSWYQQKPGKAPKLLIYSASTLASGVPSRFSGSGSGTDFTLTISSLQCEDAATYYCQSYYDIGTSTFGGGTKVEIKR
notes: Humanized anti-human mesothelin with unpaired cysteine at LCcys80; parental mAb in Biacore; also called 111810 zu
B2: 111B10-xi (antibody, human IgG1, kappa, V domains shown)
VH: QSVEESGGRLVTPGTPLTLTCTVSGFSLNNYAMSWVRQAPGKGLEWIGSISTGGLAFYANWAKGRFTISRTSTTVDLKMTSLTTEDTATYFCGRNGGGSYIFYYFDLWGQGTLVTVSS
VL: AFELTQTPSSVEAAVGGTITIKCQASQSISSYLSWYQQKPGQPPKLLIYSASTLASGVSSRFKGSGSGTEYTLTISDLECADAATYFCQSYYDIGTSTFGGGTEVVVKR
notes: Rabbit-human chimeric anti-human mesothelin with unpaired cysteine at LCcys80; parental mAb in Biacore; also called 111810 xi
B3: MORAb-003-VCP-eribulin (MORAb-202) (antibody, human IgG1, kappa, V domains shown)
VH: EVQLVESGGGVVQPGRSLRLSCSASGFTFSGYGLSWVRQAPGKGLEWVAMISSGGSYTYYADSVKGRFAISRDNAKNTLFLQMDSLRPEDTGVYFCARHGDDPAWFAYWGQGTPVTVSS
VL: DIQLTQSPSSLSASVGDRVTITCSVSSSISSNNLHWYQQKPGKAPKPWIYGTSNLASGVPSRFSGSGSGTDYTFTISSLQPEDIATYYCQQWSSYPYMYTFGQGTKVEIKR
modifications: Mal-PEG2-Val-Cit-pAB-eribulin on interchain cysteines, sites not given
B4: 346C6-xi (antibody, human IgG1, kappa, V domains shown)
VH: QSVEESGGRLVKPDESLTLTCTASGFSLSSYAMIWVRQAPGEGLEWIGTISTGGITYYASWAKGRFTISKTSTTVDLKITSPTTEDTATYFCARGGYAASSAYYLPYYFDLWGQGTLVTVSS
VL: AAVLTQTPSPVSAAVGGTVTISCQSSQSVYNNNNLAWFQQKPGQPPKLLIYLASTLASGVPSRFSGSGSGTQFTLTISGVQCDDAATYYCLGGCDDDADTFAFGGGTEVVVKR
notes: Rabbit-human chimeric anti-human mesothelin with unpaired cysteine at LCcys80; parental mAb in Biacore
B5: 33011-zu (antibody, human IgG1, kappa, V domains shown)
VH: EVQLVESGGGLVQPGGSLRLSCAASGISLSSDAISWVRQAPGKGLEYIGIINGGGNTYYASWAKGRFTISRHNSKNTLYLQMNSLRAEDTAVYYCARGIQHGGGNSDYYYYGMDLWGQGTLVTVSS
VL: DIQMTQSPSSLSASVGDRVTITCQASQSISSVLSWYQQKPGKAPKLLIYLASTLASGVPSRFSGSGSGTDFTLTISSLQCEDIATYYCQTNYGTSSSNYGFAFGGGTKVEIKR
notes: Humanized anti-human mesothelin with unpaired cysteine at LCcys80; parental (unconjugated) mAb in Biacore; also called 33O11 zu
B6: 201C15-xi (antibody, human IgG1, kappa, V domains shown)
VH: QSVKESGGRLVTPGTPLTLTCTVSGIDLSSYAMGWFRQAPGKGLEYIGTINIGGRVYYASWAKGRFTISRTSTTVDLKAPSLTAEDTATYFCARYYNGGSYDIWGPGTLVTVSL
VL: DVVMTQTPASASEPVGGTVTIKCQASESIYRVLAWYQQKPGQPPKLLIYDTSTLASGAPSRFKGSGYGTEFTLTISGVQCEDAATYYCQGGYYADSYGIAFGGGTEVVVKR
notes: as for B4
B7: 201C15-zu (antibody, human IgG1, kappa, V domains shown)
VH: QVQLVESGGGLVQPGGSLRLSCSASGIDLSSYAMGWVRQAPGKGLEYIGTINIGGRVYYASWAKGRFTISRDNSKNTLYLQMNSLRAEDTAVYYCARYYNGGSYDIWGQGTLVTVSS
VL: DIQMTQSPSTLSASVGDRVTITCQASESIYRVLAWYQQKPGKAPKLLIYDTSTLASGVPSRFSGSGSGTEFTLTISSLQCDDAATYYCQGGYYADSYGIAFGGGTKVEIKR
notes: Humanized anti-human mesothelin with unpaired cysteine at LCcys80; parental mAb in Biacore
B8: 346C6-zu (antibody, human IgG1, kappa, V domains shown)
VH: EVQLVESGGGLVQPGGSLRLSCAASGFSLSSYAMIWVRQAPGKGLEWIGTISTGGITYYASWAKGRFTISRDNSKNTLYLQMNSLRAEDTAVYYCARGGYAASSAYYLPYYFDLWGQGTLVTVSS
VL: DIQMTQSPSSLSASVGDRVTITCQSSQSVYNNNNLAWYQQKPGKVPKLLIYLASTLASGVPSRFSGSGSGTDFTLTISSLQCEDAATYYCLGGCDDDADTFAFGGGTKVEIKR
notes: as for B7

Legend:
[1] = target: T1, Recombinant human mesothelin (human, UniProt Q13421 296-580, limits assumed); assay: Biacore T100, antibody captured on anti-human IgG, antigen injected, 1:1 Langmuir
T1 construct: also called MSLN
Method: Antibody concentrations were adjusted to 2 μg/mL in HBS-P+ buffer (GE Healthcare). Unmodified antibodies, or ADCs, were injected over an anti-human IgG sensor on a BIAcore T100 (GE Healthcare) for 1 min at a flow rate of 10 μL/min. To record the antigen association to the captured antibody, a series of increasing concentrations of antigen was injected for 300 sec at a flow rate of 30 μL/min. […] The dissociation of antigen was monitored for 30 min at the same flow rate. The sensor surface was regenerated by injecting 3 M MgCl₂ for 2×30 sec at a flow rate of 30 μL/min. Sensograms were analyzed with Biacore T100 Evaluation Software using a 1:1 Langmuir binding model.
Binding affinities of the parental antibodies were determined by Biacore analysis, as described above in section 1.6.1. Aggregation levels for all anti-human mesothelin ADCs were determined by SEC-HPLC and the DAR was analyzed using HIC-HPLC. In vitro potency was evaluated using a Crystal Violet cell-based cytotoxicity assay in A3 (A431 stabily transfected with human mesothelin (MSLN), MSLN^hi), OVCAR3 (human ovarian, MSLN^hi), HEC-251 (human endometroid, MSLN^med), H226 (human lung squamous cell mesothelioma, MSLN^lo, and A431 parental (MSLN^neg) cells. The results of the DAR, aggregation, and cytotoxicity analyses are shown in Table 50.

[2] = target: T2, Human folate receptor alpha on tumor cells (human, UniProt P15328 25-234); assay: cell-based or functional assay
[3] = target: T2, Human folate receptor alpha on tumor …; assay: cell-based or functional assay; remark: listed apart in the source

T1 sequence (Q13421 other isoform, or with tags, fused parts or gaps limits assumed): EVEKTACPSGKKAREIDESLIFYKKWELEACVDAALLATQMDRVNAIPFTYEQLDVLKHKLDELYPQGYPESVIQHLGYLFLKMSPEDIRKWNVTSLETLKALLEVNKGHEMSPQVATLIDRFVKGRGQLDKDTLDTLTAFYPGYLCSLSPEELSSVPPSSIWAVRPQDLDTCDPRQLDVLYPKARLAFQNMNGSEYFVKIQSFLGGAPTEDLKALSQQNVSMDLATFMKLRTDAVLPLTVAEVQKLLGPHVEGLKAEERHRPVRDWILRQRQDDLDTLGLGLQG
T2 sequence (P15328 25-234 limits assumed): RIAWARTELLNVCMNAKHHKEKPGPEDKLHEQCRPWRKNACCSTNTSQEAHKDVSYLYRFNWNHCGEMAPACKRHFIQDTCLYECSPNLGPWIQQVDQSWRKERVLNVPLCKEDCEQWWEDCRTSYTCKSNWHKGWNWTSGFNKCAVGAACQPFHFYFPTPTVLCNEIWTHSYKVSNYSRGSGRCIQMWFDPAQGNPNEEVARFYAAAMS

Binder | Kd [1] [nM] | also measured
B1 | 8.5 | –
B2 | 6.3 | –
B3 | – | Cytotoxicity EC50 (nM), A431-A3 (FR+/-), Crystal Violet assay [2]: 23 nM; Cytotoxicity EC50 (nM), IGROV I (FR+++), Crystal Violet assay [2]: 0.01 nM; Cytotoxicity EC50 (nM), NCI-H2110 (FR++), Crystal Violet assay [2]: 0.74 nM; Cytotoxicity EC50 (nM), OVCAR3 (FR++), Crystal Violet assay [2]: 0.16 nM; IC50 (read off the curve), % survival of IGROV1 cells, conjugate alone [3]: ~0.03 nM; IC50 (read off the curve), % survival of IGROV1 cells, in the presence of 2 µM unconjugated MORAb-003 as competitor [3]: ~3 nM
B4 | 1.4 | –
B5 | 3.4 | –
B6 | 1.1 | –
B7 | 4.2 | –
B8 | 6.9 | –
